From patent publication US20250129150A1 (APOGEE THERAPEUTICS, published 2025)
Substitutions are numbered along the chain they refer to.

B1: Construct 128 (antibody, human IgG4, kappa)
heavy: QVTLRESGPALVKPTQTLTLTCTVSGFSLSAYSVNWIRQPPGKALEWLAMIWGDGKIVYNSALKSRLTISKDTSKNQVVLTMTNMDPVDTATYYCAGDGYYPYAMDNWGQGSLVTVSSASTKGPSVFPLAPCSRSTSESTAALGCLVKDYFPEPVTVSWNSGALTSGVHTFPAVLQSSGLYSLSSVVTVPSSSLGTKTYTCNVDHKPSNTKVDKRVESKYGPPCPSCPAPEFLGGPSVFLFPPKPKDTLYITREPEVTCVVVDVSQEDPEVQFNWYVDGVEVHNAKTKPREEQFNSTYRVVSVLTVLHQDWLNGKEYKCKVSNKGLPSSIEKTISKAKGQPREPQVYTLPPSQEEMTKNQVSLTCLVKGFYPSDIAVEWESNGQPENNYKTTPPVLDSDGSFFLYSRLTVDKSRWQEGNVFSCSVMHEALHNHYTQKSLSLSLGK
light: DIVMTQSPDSLSVSLGERATINCRASKSVDSYGNSFMHWYQQKPGQPPKLLIYLASNLESGVPDRFSGSGSGTDFTLTISSLQAEDVAVYYCQQNNEDPRTFGGGTKVEIKRTVAAPSVFIFPPSDEQLKSGTASVVCLLNNFYPREAKVQWKVDNALQSGNSQESVTEQDSKDSTYSLSSTLTLSKADYEKHKVYACEVTHQGLSSPVTKSFNRGEC
notes: also called Lebrikizumab-HC; Lebrikizumab-LC
B2: Construct 130 (antibody, human IgG1, kappa, L234A L235A)
heavy: QVTLRESGPALVKPTQTLTLTCTVSGFSLSAYSVNWIRQPPGKALEWLAMIWGDGKIVYNSALKSRLTISKDTSKNQVVLTMTNMDPVDTATYYCAGDGYYPYAMDNWGQGSLVTVSSASTKGPSVFPLAPSSKSTSGGTAALGCLVKDYFPEPVTVSWNSGALTSGVHTFPAVLQSSGLYSLSSVVTVPSSSLGTQTYICNVNHKPSNTKVDKKVEPKSCDKTHTCPPCPAPEAAGGPSVFLFPPKPKDTLYITREPEVTCVVVDVSHEDPEVKFNWYVDGVEVHNAKTKPREEQYNSTYRVVSVLTVLHQDWLNGKEYKCKVSNKALPAPIEKTISKAKGQPREPQVYTLPPSRDELTKNQVSLTCLVKGFYPSDIAVEWESNGQPENNYKTTPPVLDSDGSFFLYSKLTVDKSRWQQGNVFSCSVMHEALHNHYTQKSLSLSPG
light: B1 light
notes: as for B1
B3: Construct 2 (antibody, human IgG1, kappa)
heavy: B2 heavy with A235L, G238A
light: B1 light
B4: Construct 129 (antibody, human IgG4, kappa)
heavy: QVTLRESGPALVKPTQTLTLTCTVSGFSLSAYSVNWIRQPPGKALEWLAMIWGDGKIVYNSALKSRLTISKDTSKNQVVLTMTNMDPVDTATYYCAGDGYYPYAMDNWGQGSLVTVSSASTKGPSVFPLAPCSRSTSESTAALGCLVKDYFPEPVTVSWNSGALTSGVHTFPAVLQSSGLYSLSSVVTVPSSSLGTKTYTCNVDHKPSNTKVDKRVESKYGPPCPSCPAPEFLGGPSVFLFPPKPKDTLMISRTPEVTCVVVDVSQEDPEVQFNWYVDGVEVHNAKTKPREEQFNSTYRVVSVLTVLHQDWLNGKEYKCKVSNKGLPSSIEKTISKAKGQPREPQVYTLPPSQEEMTKNQVSLTCLVKGFYPSDIAVEWESNGQPENNYKTTPPVLDSDGSFFLYSRLTVDKSRWQEGNVFSCSVLHEALHSYTQKSLSLSLGK
light: B1 light
notes: as for B1
B5: Construct 131 (antibody, human IgG1, kappa, L234A L235A)
heavy: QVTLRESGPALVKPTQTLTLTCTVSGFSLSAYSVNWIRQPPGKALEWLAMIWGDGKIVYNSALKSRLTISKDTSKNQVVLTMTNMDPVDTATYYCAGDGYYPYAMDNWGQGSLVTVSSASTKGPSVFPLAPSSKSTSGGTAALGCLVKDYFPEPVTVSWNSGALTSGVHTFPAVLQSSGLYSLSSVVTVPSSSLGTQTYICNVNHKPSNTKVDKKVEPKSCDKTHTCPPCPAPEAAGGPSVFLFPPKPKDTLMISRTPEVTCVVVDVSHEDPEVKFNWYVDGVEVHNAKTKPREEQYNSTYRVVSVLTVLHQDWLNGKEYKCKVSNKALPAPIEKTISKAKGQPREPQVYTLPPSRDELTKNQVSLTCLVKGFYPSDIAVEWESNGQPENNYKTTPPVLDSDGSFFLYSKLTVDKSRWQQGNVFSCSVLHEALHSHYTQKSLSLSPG
light: B1 light
notes: as for B1
B6: Construct 144 (antibody, human IgG1, kappa, L234A L235A)
heavy: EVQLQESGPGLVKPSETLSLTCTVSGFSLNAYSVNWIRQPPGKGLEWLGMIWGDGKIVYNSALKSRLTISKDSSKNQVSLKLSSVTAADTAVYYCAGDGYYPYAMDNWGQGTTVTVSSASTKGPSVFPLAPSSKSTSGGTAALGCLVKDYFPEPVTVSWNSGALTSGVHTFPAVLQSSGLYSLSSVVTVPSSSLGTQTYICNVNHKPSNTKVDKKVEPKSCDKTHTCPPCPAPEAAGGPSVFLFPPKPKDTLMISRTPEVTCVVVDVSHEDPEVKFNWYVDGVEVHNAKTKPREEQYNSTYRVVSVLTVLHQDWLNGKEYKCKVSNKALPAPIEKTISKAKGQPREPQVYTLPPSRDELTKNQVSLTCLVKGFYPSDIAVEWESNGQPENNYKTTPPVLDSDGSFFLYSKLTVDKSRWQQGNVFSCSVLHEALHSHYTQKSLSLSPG
light: DIQLTQSPSSLSASVGDRVTITCRASKSVDSYGNSFMHWYQQKPGKAPKLLIYLASELESGVPSRFSGSGSGTDFTLTISSLQPEDFATYYCQQNNEDPRTFGGGTKVEIKRTVAAPSVFIFPPSDEQLKSGTASVVCLLNNFYPREAKVQWKVDNALQSGNSQESVTEQDSKDSTYSLSSTLTLSKADYEKHKVYACEVTHQGLSSPVTKSFNRGEC
notes: also called HC1; LC6_m8
B7: Construct 15 (antibody, human IgG1, kappa)
heavy: EVQLQESGPGLVKPSETLSLTCTVSGFSLNAYSVNWIRQPPGKGLEWLGMIWGDGKIVYNSALKSRLTISKDSSKNQVSLKLSSVTAADTAVYYCAGDGYYPYAMDNWGQGTTVTVSSASTKGPSVFPLAPSSKSTSGGTAALGCLVKDYFPEPVTVSWNSGALTSGVHTFPAVLQSSGLYSLSSVVTVPSSSLGTQTYICNVNHKPSNTKVDKKVEPKSCDKTHTCPPCPAPELAGAPSVFLFPPKPKDTLYITREPEVTCVVVDVSHEDPEVKFNWYVDGVEVHNAKTKPREEQYNSTYRVVSVLTVLHQDWLNGKEYKCKVSNKALPAPIEKTISKAKGQPREPQVYTLPPSRDELTKNQVSLTCLVKGFYPSDIAVEWESNGQPENNYKTTPPVLDSDGSFFLYSKLTVDKSRWQQGNVFSCSVMHEALHNHYTQKSLSLSPG
light: B6 light with E57N
B8: Construct 142 (antibody, human IgG4, kappa)
heavy: EVQLQESGPGLVKPSETLSLTCTVSGFSLNAYSVNWIRQPPGKGLEWLGMIWGDGKIVYNSALKSRLTISKDSSKNQVSLKLSSVTAADTAVYYCAGDGYYPYAMDNWGQGTTVTVSSASTKGPSVFPLAPCSRSTSESTAALGCLVKDYFPEPVTVSWNSGALTSGVHTFPAVLQSSGLYSLSSVVTVPSSSLGTKTYTCNVDHKPSNTKVDKRVESKYGPPCPSCPAPEFLGGPSVFLFPPKPKDTLYITREPEVTCVVVDVSQEDPEVQFNWYVDGVEVHNAKTKPREEQFNSTYRVVSVLTVLHQDWLNGKEYKCKVSNKGLPSSIEKTISKAKGQPREPQVYTLPPSQEEMTKNQVSLTCLVKGFYPSDIAVEWESNGQPENNYKTTPPVLDSDGSFFLYSRLTVDKSRWQEGNVFSCSVMHEALHNHYTQKSLSLSLGK
light: B6 light
notes: also called HC1; LC6_m8

Legend:
hIL-13 [1] = biological target: T1, hIL-13 (human, UniProt P35225 35-146, limits assumed); assay: ELISA
T1 construct: IL-13 as used in the cell assays, the ELISA, the binning study and HDX-MS/XL-MS; also called human IL-13; Hu IL-13

hIL-13 [2] = biological target: T1, hIL-13; assay: cell-based or functional assay
hIL-13 [3] = biological target: T1, hIL-13; assay: cell-based or functional assay; remark: listed apart in the source
hIL-13 [4] = biological target: T1, hIL-13; assay: cell-based or functional assay; remark: listed apart in the source
[5] = biological target: T2, Recombinant Human IL-13 Protein, His Tag (Acro Cat. IL3-H52H4) (human, UniProt P35225 35-146); assay: SPR (Biacore 8K), mAb captured on Protein G chip, IL-13 as analyte
T2 construct: Bought protein; also called Hu IL-13; not shown: His Tag
Procedure: (§1) Samples were injected in a multi-cycle manner over freshly captured mAb, by regenerating the capture surfaces with injection of glycine pH 1.5 for 30 sec at a flow rate of 30 μL/min. The data was processed and analyzed with Biacore Insight Evaluation Software Version 2.0.15.12933 (GE Healthcare) as follows. […] The responses from the two buffer blank injections were then subtracted from the reference subtracted data (2-1) to yield double-referenced data, which were fit to an 1:1 binding model to determine the apparent association (ka) and dissociation rate constants (kd). Their ratio provided the apparent equilibrium dissociation constant or affinity constant (KD=kd/ka).

[6] = biological target: T3, Recombinant Cynomolgus IL-13 Protein, His Tag (SINO BIOLOGICAL, Cat. 11057-C07H) (cynomolgus monkey, UniProt Q5I6E4 19-132 (Macaca thibetana entry)); assay: as above
T3 construct: also called Cyno IL-13; cynomolgus monkey IL-13
T3 chain: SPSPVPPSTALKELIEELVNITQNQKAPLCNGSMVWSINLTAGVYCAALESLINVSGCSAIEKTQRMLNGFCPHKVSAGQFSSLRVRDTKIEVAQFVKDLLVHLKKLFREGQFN
Procedure: as §1

biotinylated hIL-13 = biotinylated hIL-13 (human, UniProt P35225 35-146, limits assumed, biotinylated (site not stated)); assay: FACS; blockade of biotinylated hIL-13 (0.05 ug/mL) binding to HEK293 cells expressing hIL-13Rα1/hIL-4Rα
Procedure: Briefly, HEK293 previously transduced to stably express both hIL-13Rα and hIL-4Rα were cultured and harvested. Cells were seeded at 200,000 cells in 100 uL per well. Cells were washed and the supernatant was discarded. […] The cells were stained in this mixture at 4° C. for 1 hour. […] Cells were incubated at 4° C. for 1 hour, protected from light. Cells were then washed and the median fluorescence intensity (MFI) of cells in each well were recorded by FACS using a BD FACSCanto II. Subsequent data were analyzed using GraphPad Prism.

hIL-13 [7] = biological target: T1, hIL-13; assay: cell-based or functional assay; remark: listed apart in the source

Sequence of biotinylated hIL-13 (P35225 other isoform, or with tags, fused parts or gaps limits assumed): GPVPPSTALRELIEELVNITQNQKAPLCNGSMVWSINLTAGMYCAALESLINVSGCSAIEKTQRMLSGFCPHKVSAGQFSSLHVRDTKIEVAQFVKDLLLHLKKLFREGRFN
T2 sequence (P35225 other isoform, or with tags, fused parts or gaps limits assumed): as above
T1 sequence (P35225 other isoform, or with tags, fused parts or gaps limits assumed): as above

| Binder | Kd (hIL-13 [1]) [nM] | pSTAT6 Inhibition IC50 (HT-29 cells) (hIL-13 [2]) [nM] | TARC Inhibition IC50 (A549 cells) (hIL-13 [3]) [nM] | TF-1 Proliferation Inhibition IC50 (hIL-13 [4]) [nM] | Kd [5] [nM] | Kd [6] [nM] | IC50 (biotinylated hIL-13) [nM] | TARC Release IC50 (A549 cells) (hIL-13 [7]) [nM] |
| --- | --- | --- | --- | --- | --- | --- | --- | --- |
| B1 | 0.067 | 0.28 | 1.01 | 0.2 | 0.0915 | 0.298 | 0.95 | – |
| B2 | 0.027 | 0.28 | 1 | 0.15 | 0.112 | 0.227 | 1.05 | – |
| B3 | – | – | – | – | – | – | – | 0.9 |
| B4 | 0.036 | 0.33 | 0.92 | 0.21 | 0.239 | 0.882 | 0.71 | – |
| B5 | 0.019 | 0.22 | 0.99 | 0.13 | 0.0756 | 0.123 | 0.79 | – |
| B6 | 0.014 | 0.3 | 0.91 | 0.17 | 0.0263 | 0.228 | 0.94 | – |
| B7 | – | – | – | – | – | – | – | 0.9 |
| B8 | 0.054 | 0.29 | 0.92 | 0.2 | 0.108 | 0.326 | 0.77 | – |
